# Results reported in patent US20070134693A1 (published 2007).
# B1: DC-SIGN (receptor)
# chain: MSDSKEPRLQQLGLLEEEQLRGLGFRQTRGYKSLAGCLGHGPLVLQLLSFTLLAGLLVQVSKVPSSISQEQSRQDAIYQNLTQLKAAVGELSEKSKLQEIYQELTQLKAAVGELPEKSKLQEIYQELTRLKAAVGELPEKSKLQEIYQELTWLKAAVGELPEKSKMQEIYQELTRLKAAVGELPEKSKQQEIYQELTRLKAAVGELPEKSKQQEIYQELTRLKAAVGELPEKSKQQEIYQELTQLKAAVERLCHPCPWEWTFFQGNCYFMSNSQRNWHDSITACKEVGAQLVVIKSAEEQNFLQLQSSRSNRFTWMGLSDLNQEGTWQWVDGSPLLPSFKQYWNRGEPNNVGEEDCAEFSGNGWNDDKCNLAKFWICKKSAASCSRDEEQFLSPAPATPNPPPA
# notes: whole, on cells; also called K562-DC-SIGN; THP-1-DC-SIGN
# Target: T1, M-tropic HIV-1MN envelope glycoprotein gp120 (HIV-1 MN, UniProt P05877 32-513)
# T1 construct: also called HIV-1 gp120; HIV-MN gp120
# Experiment: fluorescent bead adhesion assay on K562-DC-SIGN cells
binder,measurement,value
B1,binding result,binds
